# Assay results taken from US20110086015.
# What was measured:
# [1] = system: OZ138 CF877R zinc finger array (synthetic); assay: one_hybrid; conditions: bacterial two-hybrid lacZ; SD 0.41
# [2] = system: OZ120 CF877R zinc finger array (synthetic); assay: one_hybrid; conditions: bacterial two-hybrid lacZ; SD 0.01
# [3] = system: OZ137 CF877R zinc finger array (synthetic); assay: one_hybrid; conditions: bacterial two-hybrid lacZ; SD 0.04
# [4] = system: OZ132 CF877R zinc finger array (synthetic); assay: one_hybrid; conditions: bacterial two-hybrid lacZ; SD 0.05
# [5] = system: OZ124 CF877R zinc finger array (synthetic); assay: one_hybrid; conditions: bacterial two-hybrid lacZ; SD 0.20
# [6] = system: OZ130 CF877R zinc finger array (synthetic); assay: one_hybrid; conditions: bacterial two-hybrid lacZ; SD 0.22
# [7] = system: OZ127 CF877R zinc finger array (synthetic); assay: one_hybrid; conditions: bacterial two-hybrid lacZ; SD 0.02
# [8] = system: OZ125 CF877R zinc finger array (synthetic); assay: one_hybrid; conditions: bacterial two-hybrid lacZ; SD 0.85
# [9] = system: OZ129 CF877R zinc finger array (synthetic); assay: one_hybrid; conditions: bacterial two-hybrid lacZ; SD 0.07
# [10] = system: OZ140 CF877R zinc finger array (synthetic); assay: one_hybrid; conditions: bacterial two-hybrid lacZ; SD 0.48
# [11] = system: OZ139 CF877R zinc finger array (synthetic); assay: one_hybrid; conditions: bacterial two-hybrid lacZ; SD 0.03
# [12] = system: OZ126 CF877R zinc finger array (synthetic); assay: one_hybrid; conditions: bacterial two-hybrid lacZ; SD 0.28
# [13] = system: OZ134 CF877R zinc finger array (synthetic); assay: one_hybrid; conditions: bacterial two-hybrid lacZ; SD 0.19
# [14] = system: OZ141 CF877R zinc finger array (synthetic); assay: one_hybrid; conditions: bacterial two-hybrid lacZ; SD 0.08
# [15] = system: OZ128 CF877R zinc finger array (synthetic); assay: one_hybrid; conditions: bacterial two-hybrid lacZ; SD 0.07
# [16] = system: OZ121 CF877R zinc finger array (synthetic); assay: one_hybrid; conditions: bacterial two-hybrid lacZ; SD 0.19
# [17] = system: OZ131 CF877R zinc finger array (synthetic); assay: one_hybrid; conditions: bacterial two-hybrid lacZ; SD 0.12
# [18] = system: OZ133 CF877R zinc finger array (synthetic); assay: one_hybrid; conditions: bacterial two-hybrid lacZ; SD 0.05
# [19] = system: OZ122 CF877R zinc finger array (synthetic); assay: one_hybrid; conditions: bacterial two-hybrid lacZ; SD 0.59
# [20] = system: OZ136 CF877R zinc finger array (synthetic); assay: one_hybrid; conditions: bacterial two-hybrid lacZ; SD 0.06
# [21] = system: OZ142 CF877R zinc finger array (synthetic); assay: one_hybrid; conditions: bacterial two-hybrid lacZ; SD 0.16
# [22] = system: OZ123 CF877R zinc finger array (synthetic); assay: one_hybrid; conditions: bacterial two-hybrid lacZ; SD 0.63
# [23] = system: OZ119 CF877R zinc finger array (synthetic); assay: one_hybrid; conditions: bacterial two-hybrid lacZ; SD 0.35; site triplets appear printed in F1-F2-F3 order, so 5'-3' triplet order may be reversed
# [24] = system: OZ135 CF877R zinc finger array (synthetic); assay: one_hybrid; conditions: bacterial two-hybrid lacZ; SD 0.07
# [25] = system: T1, CF877 left ZFN (synthetic); assay: cell_activity; conditions: as pair with right ZFN, K562 nucleofection; up to ~29% with adenovirus in CFBE41o-; exact clone of pair not stated
# T1 sequence: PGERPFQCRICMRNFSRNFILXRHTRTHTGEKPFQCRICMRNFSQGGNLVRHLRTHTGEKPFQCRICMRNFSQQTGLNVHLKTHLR
# [26] = system: OZ115 CF877L zinc finger array (synthetic); assay: one_hybrid; conditions: bacterial two-hybrid lacZ; SD 0.12
# [27] = system: OZ108 CF877L zinc finger array (synthetic); assay: one_hybrid; conditions: bacterial two-hybrid lacZ; SD 0.51
# [28] = system: OZ114 CF877L zinc finger array (synthetic); assay: one_hybrid; conditions: bacterial two-hybrid lacZ; SD 0.18
# [29] = system: OZ116 CF877L zinc finger array (synthetic); assay: one_hybrid; conditions: bacterial two-hybrid lacZ; SD 0.38
# [30] = system: OZ107 CF877L zinc finger array (synthetic); assay: one_hybrid; conditions: bacterial two-hybrid lacZ; SD 0.58; site triplets appear printed in F1-F2-F3 order, so 5'-3' triplet order may be reversed
# [31] = system: OZ111 CF877L zinc finger array (synthetic); assay: one_hybrid; conditions: bacterial two-hybrid lacZ; SD 1.90
# [32] = system: OZ118 CF877L zinc finger array (synthetic); assay: one_hybrid; conditions: bacterial two-hybrid lacZ; SD 0.08
# [33] = system: OZ117 CF877L zinc finger array (synthetic); assay: one_hybrid; conditions: bacterial two-hybrid lacZ; SD 0.33
# [34] = system: OZ110 CF877L zinc finger array (synthetic); assay: one_hybrid; conditions: bacterial two-hybrid lacZ; SD 0.15
# [35] = system: OZ109 CF877L zinc finger array (synthetic); assay: one_hybrid; conditions: bacterial two-hybrid lacZ; SD 0.20
# [36] = system: OZ112 CF877L zinc finger array (synthetic); assay: one_hybrid; conditions: bacterial two-hybrid lacZ; SD 0.55
# [37] = system: OZ113 CF877L zinc finger array (synthetic); assay: one_hybrid; conditions: bacterial two-hybrid lacZ; SD 0.20
sequence,measurement,setting,value
GAGTGGTTA (double strand) [CF877R half-site],binding signal (fold activation),[1],2.52
same,binding signal (fold activation),[2],2.53
same,binding signal (fold activation),[3],2.26
same,binding signal (fold activation),[4],1.28
same,binding signal (fold activation),[5],4.41
same,binding signal (fold activation),[6],2.47
same,binding signal (fold activation),[7],1.6
same,binding signal (fold activation),[8],4
same,binding signal (fold activation),[9],2.55
same,binding signal (fold activation),[10],2.99
same,binding signal (fold activation),[11],2.74
same,binding signal (fold activation),[12],2.57
same,binding signal (fold activation),[13],3.71
same,binding signal (fold activation),[14],2.87
same,binding signal (fold activation),[15],2.12
same,binding signal (fold activation),[16],2.91
same,binding signal (fold activation),[17],2.08
same,binding signal (fold activation),[18],3.24
same,binding signal (fold activation),[19],4.72
same,binding signal (fold activation),[20],2.16
same,binding signal (fold activation),[21],2.73
same,binding signal (fold activation),[22],5.03
same,binding signal (fold activation),[23],2.78
same,binding signal (fold activation),[24],2.25
GTGGAATTA (double strand) [CF877L half-site],activity,[25],1.2 % indels
same,binding signal (fold activation),[26],2.71
same,binding signal (fold activation),[27],2.31
same,binding signal (fold activation),[28],2.95
same,binding signal (fold activation),[29],2.53
same,binding signal (fold activation),[30],1.92
same,binding signal (fold activation),[31],2.2
same,binding signal (fold activation),[32],3.55
same,binding signal (fold activation),[33],3.87
same,binding signal (fold activation),[34],1.61
same,binding signal (fold activation),[35],2.83
same,binding signal (fold activation),[36],2.52
same,binding signal (fold activation),[37],1.61
